Reference: the supplement of paper PMC11865577

Key:
Experiment in all cases: pull-down binding Z-score (relative to library population); higher = stronger binding
[1] = tested on: TO-3-N3 (biotin conjugate); settings: RNA library: Library-2
Method in brief: (§1)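 Biotin-conjugated small molecule (100 pmol) on streptavidin beads was incubated with 1 μg of heat-folded Cy5- or Cy3-end-labelled RNA library in phosphate/NaCl/KCl buffer at 25 °C for 60 min. Following three washes, RNA was eluted with hot SDS and hybridised at 55.5 °C for 20 h to a DNA barcode microarray. The binding value is a Z-score computed from the library mean and standard deviation, after subtraction of beads without compound and averaging of barcoded replicate probes with the highest and lowest excluded.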

[2] = tested on: TO-N3-2 (biotin conjugate); settings: RNA library: Library-2
Method in brief: as §1

[3] = tested on: TO-3-N3-2 (biotin conjugate); settings: RNA library: Library-2
Method in brief: as §1

[4] = tested on: TO-N3 (biotin conjugate); settings: RNA library: Library-2
Method in brief: as §1

[5] = tested on: G-clamp-N3 (biotin conjugate); settings: RNA library: Library-1 (pre-miRNA loops + repeats)
Method in brief: as §1

For “GCUGCCCCUUUGCUCUCUGGGGUAGC [hsa-mir-3614]”, the “pull-down binding Z-score” value [1] was 0.491, the “pull-down binding Z-score” value [2] was -0.388 and the “pull-down binding Z-score” value [3] was 0.0223. The “pull-down binding Z-score” value [4] was 0.258 and the “pull-down binding Z-score” value [5] was 0.721.

For “GCUGCUGCCCCAGAGGCCCAGCAGGUGUCCAGAAC [hsa-mir-6750]”, the “pull-down binding Z-score” value [1] was 0.55, the “pull-down binding Z-score” value [2] was 1.93 and the “pull-down binding Z-score” value [3] was 0.49. For the same sequence, the “pull-down binding Z-score” value [4] was 1.18 and the “pull-down binding Z-score” value [5] was -0.884.

With GCUGCUGGUGCUCAUCUCAGC [hsa-mir-6877] the “pull-down binding Z-score” value [1] was 0.71, the “pull-down binding Z-score” value [2] was 0.602 and the “pull-down binding Z-score” value [3] was -0.0239. For the same sequence, the “pull-down binding Z-score” value [4] was 0.825 and the “pull-down binding Z-score” value [5] was -0.152.

In the case of GCUGCUUGCACUCGUUCAGC [hsa-mir-3661], the “pull-down binding Z-score” value [1] is reported as -0.0975, the “pull-down binding Z-score” value [2] is reported as 0.863 and the “pull-down binding Z-score” value [3] is reported as -0.246. For the same sequence, the “pull-down binding Z-score” value [4] was 0.1 and the “pull-down binding Z-score” value [5] was 0.0999.

For “GCUGGAGUAAGGGCACGCCCGGGGCUGC [hsa-mir-4758]”, the “pull-down binding Z-score” value [1] was 0.802, the “pull-down binding Z-score” value [2] was 1.79 and the “pull-down binding Z-score” value [3] was 0.383. For the same sequence, the “pull-down binding Z-score” value [4] was 1.51 and the “pull-down binding Z-score” value [5] was 1.11.

With “GCUGGAUUUCCCAGCUUGACUCUAAC [hsa-mir-200a]” the “pull-down binding Z-score” value [1] was -0.14, the “pull-down binding Z-score” value [2] was -0.215 and the “pull-down binding Z-score” value [3] was -0.242. The “pull-down binding Z-score” value [4] was -0.337 and the “pull-down binding Z-score” value [5] was -0.177.

In the case of “GCUGGGCUGAGCUAACCAGGGCUGGGCUGAGC [hsa-mir-4537]”, the “pull-down binding Z-score” value [1] is reported as 0.138, the “pull-down binding Z-score” value [2] is reported as 1.42 and the “pull-down binding Z-score” value [3] is reported as -0.0332. The “pull-down binding Z-score” value [4] was 0.532 and the “pull-down binding Z-score” value [5] was 0.991.

For GCUGGGGACUGGAGAA [hsa-mir-4489], the “pull-down binding Z-score” value [1] was 2.13, the “pull-down binding Z-score” value [2] was 1.64 and the “pull-down binding Z-score” value [3] was 1.32. For the same sequence, the “pull-down binding Z-score” value [4] was 2.4 and the “pull-down binding Z-score” value [5] was 2.08.

For “GCUGGGGCGCGGGCUUUCGCUUUCAGUCGAGGGCUAGCGAGCGCAGC [hsa-mir-7846]”, the “pull-down binding Z-score” value [1] was 0.914, the “pull-down binding Z-score” value [2] was 1.12 and the “pull-down binding Z-score” value [3] was 0.105. For the same sequence, the “pull-down binding Z-score” value [4] was 1.12 and the “pull-down binding Z-score” value [5] was 1.79.

“GCUGGGGGUAAAUGACUUGCACAUGAACACAAC [hsa-mir-708]” was tested, and the “pull-down binding Z-score” value [1] was -0.0277, the “pull-down binding Z-score” value [2] was 0.578 and the “pull-down binding Z-score” value [3] was 0.191. The “pull-down binding Z-score” value [4] was 0.304 and the “pull-down binding Z-score” value [5] was -0.951.

“GCUGGUCGCGGGUUGUGGGGUUUAGGUCACCGGC [hsa-mir-5091]” was tested, and the “pull-down binding Z-score” value [1] was 3.15, the “pull-down binding Z-score” value [2] was 2.87 and the “pull-down binding Z-score” value [3] was 2.9. The “pull-down binding Z-score” value [4] was 3.21 and the “pull-down binding Z-score” value [5] was 1.7.

“GCUGGUGACAUUGCUAAUUCAUUUCACACCAGC [hsa-mir-4293]” was tested, and the “pull-down binding Z-score” value [1] was -0.991, the “pull-down binding Z-score” value [2] was -0.912 and the “pull-down binding Z-score” value [3] was -0.177. For the same sequence, the “pull-down binding Z-score” value [4] was -1.31 and the “pull-down binding Z-score” value [5] was -0.642.

In the case of “GCUGUGUUGAAUGAUUGGUGAGUUUGUUUGCUCAUUGAUUGAAUCACUGC [hsa-mir-3678]”, the “pull-down binding Z-score” value [1] is reported as -0.734, the “pull-down binding Z-score” value [2] is reported as -0.307 and the “pull-down binding Z-score” value [3] is reported as 0.121. The “pull-down binding Z-score” value [4] was -0.79 and the “pull-down binding Z-score” value [5] was 0.133.

For “GCUGUUGGUCGGGUUGUGACAUUGCCCGCUGUGGAGAUAACUGC [hsa-let-7i]”, the “pull-down binding Z-score” value [1] was -0.307, the “pull-down binding Z-score” value [2] was 1.01 and the “pull-down binding Z-score” value [3] was 0.672. For the same sequence, the “pull-down binding Z-score” value [4] was 0.207 and the “pull-down binding Z-score” value [5] was -0.338.

With GCUUAUACGUGCCCUUGCU [hsa-mir-8075] the “pull-down binding Z-score” value [1] was -0.186, the “pull-down binding Z-score” value [2] was 0.504 and the “pull-down binding Z-score” value [3] was 0.345. The “pull-down binding Z-score” value [4] was 0.318 and the “pull-down binding Z-score” value [5] was -1.63.

In the case of “GCUUAUGGGGAUAUUGUGGUUGAUCUGUUCUAUCCAGAUGAC [hsa-mir-1261]”, the “pull-down binding Z-score” value [1] is reported as 0.283, the “pull-down binding Z-score” value [2] is reported as 0.626 and the “pull-down binding Z-score” value [3] is reported as 0.0944. The “pull-down binding Z-score” value [4] was 0.676 and the “pull-down binding Z-score” value [5] was 0.854.

In the case of “GCUUAUGUCAUGACCUUGGGCUACUCAGGCUGUCUGCACAAUGAGC [hsa-mir-575]”, the “pull-down binding Z-score” value [1] is reported as -0.544, the “pull-down binding Z-score” value [2] is reported as 1.66 and the “pull-down binding Z-score” value [3] is reported as -0.342. The “pull-down binding Z-score” value [4] was -0.0339 and the “pull-down binding Z-score” value [5] was -0.804.

In the case of GCUUAUUGAUGUAGCCAACAAGC [hsa-mir-3148], the “pull-down binding Z-score” value [1] is reported as -0.527, the “pull-down binding Z-score” value [2] is reported as -0.384 and the “pull-down binding Z-score” value [3] is reported as -0.225. For the same sequence, the “pull-down binding Z-score” value [4] was -0.643 and the “pull-down binding Z-score” value [5] was -0.529.

GCUUCCGCUCUGCAGAGGC [hsa-mir-6822] was tested, and the “pull-down binding Z-score” value [1] was 0.134, the “pull-down binding Z-score” value [2] was -0.438 and the “pull-down binding Z-score” value [3] was -0.487. For the same sequence, the “pull-down binding Z-score” value [4] was 0.0168 and the “pull-down binding Z-score” value [5] was -0.531.

In the case of GCUUCUCUUUCUCACCAGCAGC [hsa-mir-4467], the “pull-down binding Z-score” value [1] is reported as -0.543, the “pull-down binding Z-score” value [2] is reported as -0.0165 and the “pull-down binding Z-score” value [3] is reported as 0.152. The “pull-down binding Z-score” value [4] was -0.461 and the “pull-down binding Z-score” value [5] was -1.87.

In the case of GCUUCUGCGUUAUCUGGAAGG [hsa-mir-4706], the “pull-down binding Z-score” value [1] is reported as -0.466, the “pull-down binding Z-score” value [2] is reported as 0.26 and the “pull-down binding Z-score” value [3] is reported as -0.131. The “pull-down binding Z-score” value [4] was -0.25 and the “pull-down binding Z-score” value [5] was -0.078.

In the case of “GCUUCUGCUGCAUGAUCUCCGAGUCCCUGGGGGUAGAGAUGAUGGGGCACUGGGAGGU [hsa-mir-1282]”, the “pull-down binding Z-score” value [1] is reported as 0.113, the “pull-down binding Z-score” value [2] is reported as 0.851 and the “pull-down binding Z-score” value [3] is reported as 0.312. The “pull-down binding Z-score” value [4] was 0.59 and the “pull-down binding Z-score” value [5] was 0.676.

With “GCUUGCUGUACAUAACUCAAUAGCCGGAAGC [hsa-mir-129-2]” the “pull-down binding Z-score” value [1] was -0.0763, the “pull-down binding Z-score” value [2] was 0.327 and the “pull-down binding Z-score” value [3] was -0.316. The “pull-down binding Z-score” value [4] was -0.0532 and the “pull-down binding Z-score” value [5] was -0.369.

“GCUUGCUGUUCCUCUCAACAGUAGUCAGGAAGC [hsa-mir-129-1]” was tested, and the “pull-down binding Z-score” value [1] was -0.169, the “pull-down binding Z-score” value [2] was -0.245 and the “pull-down binding Z-score” value [3] was -0.186. For the same sequence, the “pull-down binding Z-score” value [4] was -0.219 and the “pull-down binding Z-score” value [5] was -0.381.

“GCUUGGAGCCUUGGUAGGGAAGCAAGCUGAGGAGAUAGGA [hsa-mir-7154]” was tested, and the “pull-down binding Z-score” value [1] was 1.22, the “pull-down binding Z-score” value [2] was 1.92 and the “pull-down binding Z-score” value [3] was 0.627. The “pull-down binding Z-score” value [4] was 1.57 and the “pull-down binding Z-score” value [5] was 1.23.

With GCUUUAUGUCCUGACCCAGCUAAAGC [hsa-mir-22] the “pull-down binding Z-score” value [1] was 0.3, the “pull-down binding Z-score” value [2] was -0.0465 and the “pull-down binding Z-score” value [3] was -0.246. For the same sequence, the “pull-down binding Z-score” value [4] was 0.112 and the “pull-down binding Z-score” value [5] was -0.155.

With “GCUUUCUGUGGUCAGAAAGAAAAGCAAGU [hsa-mir-520f]” the “pull-down binding Z-score” value [1] was 0.636, the “pull-down binding Z-score” value [2] was 0.76 and the “pull-down binding Z-score” value [3] was 0.704. The “pull-down binding Z-score” value [4] was 0.758 and the “pull-down binding Z-score” value [5] was 1.15.

For “GCUUUUCACCUGUGAUCCCAGGAGAGGAAGC [hsa-mir-646]”, the “pull-down binding Z-score” value [1] was -0.299, the “pull-down binding Z-score” value [2] was 0.422 and the “pull-down binding Z-score” value [3] was -0.0622. The “pull-down binding Z-score” value [4] was -0.0302 and the “pull-down binding Z-score” value [5] was -0.741.

For “GGAAACUGAGACUUUGUAACUAUGUCUCAGUCUCA [hsa-mir-452]”, the “pull-down binding Z-score” value [1] was -0.179, the “pull-down binding Z-score” value [2] was -0.427 and the “pull-down binding Z-score” value [3] was -0.296. The “pull-down binding Z-score” value [4] was -0.297 and the “pull-down binding Z-score” value [5] was -0.74.

For GGAAAGGGGAUGCAGAGCCCUGCC [hsa-mir-4647], the “pull-down binding Z-score” value [1] was 1.28, the “pull-down binding Z-score” value [2] was 1.52 and the “pull-down binding Z-score” value [3] was 0.526. The “pull-down binding Z-score” value [4] was 1.44 and the “pull-down binding Z-score” value [5] was 1.97.
